Data reported in the DeepSol protein solubility set.

Test: soluble on expression in E. coli; label from the status in PepcDB or PDB records

Soluble on expression in E. coli, not soluble:
NRYAKLCMEREINKRTVLMQEMELENYKKINQANDKYMELLHNSNHYMRTVYGLLEQDNKDEAINIMDSVLTEYEEGELIEYSTNSILNTILSEYYDKSKTNHIEFNIFVEPGFNIECVESMDLVAMVSNLISNAYEAALKSDEKKIKVQMYMQNDGSFIIIKIENSFSGEIVSQGDRLLTTKKDGNIHGVGIESVEKVAEKYDGWVSTSWGNKSFRTMLVLNNSYVV
MSDTTELVDLAVIFPDLEIELKYACADNITGKAIYQQARCLLHKDAITALAKSISIAQLSGLQLVIYDAYRPQQAQAMLWQACPDPQYVVDVTVGSNHSRGTAIDLTLRDEHGNILDMGAGFDEMHERSHAYHPSVPPAAQRNRLLLNAIMTGGGFVGISSEWWHFELPQAASYPLLADQFSCFISPGTQHVS
MAHHHHHHMDDERTTAAGRITSTNVREEEPSITVPCELDTHIEQHERRKRGRVWTAEEQAAYWREKKEKQRQRKKAAAAERREMQQKEWEALSQSERERRRAEAIAVHEKRRGAEMRLQQLCQEHLADAKLPVLVFDLSFAWCMNASDCRSTVSQVKLSYSALRRHAFPLRPVITSIGGSADGEMACAHSDVLQSLCTFNGFSRYPLPVHENHWSSLYDLQRVVFLTADAEVVLERIEQGTVYIVGAFVDHNARKFLTRDAAIRYGVRMARLPIDESIKVGNICKVLTVNHVVDVLCRYTECGDWSTAFDVLPTRRTVSRRERRTNAHISMSSNTVFGECDSVDTDETGGTTRVASGQAD
MTATPEVQKSIEEVYTKLQGASDCSSLLKKHLTKDVVAKNKSKKTRLGATLLDVIQSGGENLDSGVGIYAPDAESYTLFADLFNPVIEEYHNGFKATDTQPAMDLGEKNVGELADLDPEGKFIVSTRIRCGRSLQGYPFNPCLSETNYKMMETRMKEIFNSITDPELKGTYYPLTGMDEETKKKLIADHFLFKEGDRFLKAANANRYWPNGRGIFHNEKKTFLVWVNEEDHLRIISMQNGGNVGEVLARLIKGLNLVAAKAPFARHPRLGWLTFCPTNLGTTVRASVHIKLPKISAKDDFKKICSDMKLQIRGIHGEHSESKEGIYDISNKQRLGLTEYQAVRQMYDGLKKLIELEKAAA
MQVPLNSADIDYAQFKDANGQEVLVIADGGKLKAFDGTKVYEIVPAPNESGYPANDLANINNKGLKGCVVHNTRVVIWDGSDTIWHSKIGYYDYFGQTDYQRFVRENDYVQTCVTFAGALLVFMRRHIGVLFGHDVEDWSQGFLDTQNGCINPKTVQTVTHPDGRQEVFYLSDNGVHAVYTIDTIEMDVSNRYSTRSVTEGLIDWKALGVTKDEWKRATAYFYDGRYWLIYPKGSEWRGLVYDTRLQAWFPINNVKANSFYHDEDYFYFAGDDGHLKVFDDTLYSDWNDKNKTSGTPINFYWYSKLLTPKLTGYDHFWDVLMIEAKQFPQKSALDVEVNTYLGRFTQEKAVKTASLVWGVTEWGEAQWQNPFLTEAVNNAKRLPTFLKGQYAQIKLSNNRDEPVEIYSLKYEVRLME
MGSDKIHHHHHHMTVAVDLPIPAKLVPVFTKENVRYRGAHGGRGSAKTRTFAMMSAVRAYQAAESGTSGVILCAREFMNSLEESSMEEVKQAIRSIPWLDDYFEIGEKYIRTKNRLVNYVFCGLRHNLDSIKSKARILLAWIDEAESVSETAWKKLRPTVRESGSEIWVTWNPEKDGSATDKRLRKKPPKSSIIVEMNYSDNPWFPDVLEEERQEDLESLDHSDYAWIWEGAYLENSEKQVLANKYKIESFPDDLWMQADRLLFGADFGFARDPSTLLRMFILDNCLYIDREAYSVGVELDHMPAFYDQVPESRKWPIKADSARPETISYLKRQGFNISAAKKWQGSVEDGITFLRGFKKIIIHPRCKETAKEARLYSYKVDRITGEVLPIIEDAHNHCWDAARYGLDGYIKGRTTVWDIM
MGSDKIHHHHHHMQVIKQKLTATCAQLTGYLHQPDTNAHQTNLPAIIIVPGGSYTHIPVAQAESLAMAFAGHGYQAFYLEYTLLTDQQPLGLAPVLDLGRAVNLLRQHAAEWHIDPQQITPAGFSVGGHIVALYNDYWATRVATELNVTPAMLKPNNVVLGYPVISPLLGFPKDDATLATWTPTPNELAADQHVNSDNQPTFIWTTADDPIVPATNTLAYATALATAKIPYELHVFKHGPHGLALANAQTAWKPDANQPHVAHWLTLALEWLADNR
MNNKNLALKAPLSGPVMPLNRVPDPVFSSGTLGEGIAIDPLNDCLHAPCAGLVSHLARTRHALSLRADNGAELLLHVGLDTVQLQGEGFEALVEEGARVIEGQPLLRFDLDRVARGSRSLITVMILTNGDGFQVRPLTTNPVEVGAPLLQLSPEKAEQRPANPAPGEGSAQRQVRGRARVAHHGGLHARPAALLRKTAQGFSSQAELHFAGQVASVDSLVGIMGLGVAEQDEVEVICRGEDSEAALGALLAALASATAGAPKDAPRAIAPGEPARPAAVAGTLAGVCASPGLASGPLARLGAISLPADDGRHRPEEQHLALDQALQRVRDDVQGSLQQARLGGDENEAAIFSAHLALLEDPGLLDAADMLIDQGVGAAHAWHRAIQAQCEILQALGNLLLAERANDLRDLEKRVLRVLLGDTAPLRVPAGAIVAAREITPSDLAPLVDAGAAGLCMAEGGATSHVAILARSKGLPCLVALGAGLLELEEGRQVVLDAGQGRLELSPDARRLEQVALQVAQREEQRRRQQADAQREALTRDGRRIEIGANVASPREAAEAFANGADGVGLLRTEFLFLERRAAPDEEEQRNAYQEVLDAMGQRKVIIRTIDVGGDKHLDYLPLPVEENPALGLRGIHLGQARPELLDQQLRALLRVEPLERCRILLPMVSEVDELRAIRRRLGELATQLGIERLPELGVMIEVPSAALLADQLAEHADFLSIGTNDLSQYALAMDRCHAGLADRIDALHPALLRLIAQTCAGAARHGRWVGVCGALASDPLATPVLVGLGVEELSVGPNLVGEIKTRVRQLDAAECRRHAQALLDLGSARAVRDACLQ
LPKNLMVRLRSNTEPLSKKLRVVADYVLENAHEVQYQTITDLAFNTKTSEATVVRLCRDLGYKGYSDFRMALAVDLSQSANQSQPKMDGDICEVSAQSAVDSLMDTAKLIDRAALNRICELVHGAK
MAHHHHHHMHSRTAPPLPPHTFAQVLHDRFVHYNDGKNKQTNIKRRNANNLNSFSYTAARAQGVVPRVDSTLGLLWTWRWAGAYGVACVCVCLCAADKMSAARHSHPPPPSLSRCRFPPPALFIMHRAHTYLLCIAAHLLLSPPPPSSPSRFVFASSSLSCPGCAFSWVTRFVSSMLRRTLCCGMMQLHALPTPNPLCHTFTIPADSFESFVPQGQSCEVAHRGLAWVHPLSQGLFEQYPQELMSVFIAPRHVSISVYTNVDWSKIEWSISSFLGHYLIFTNACISPAKEYTLMEDDLELKDTDTEVLQCIKELLREQVRPMVQRDGGDVKLLNFNEKTGIVSLAMLGACKTCPSSQNTLKDGIERVMKHFVPEVTEVIEDKEHQFYEDYGLLFDSEKALFKEAARLDRERQAKLRHNLTPMVLSYEVLNEPDGD

Soluble on expression in E. coli, soluble:
MKNDVISPEFDENGRPLRRIRSFVRRQGRLTKGQEHALENYWPVMGVEFSEDMLDFPALFGREAPVTLEIGFGMGASLVAMAKDRPEQDFLGIEVHSPGVGACLASAHEEGLSNLRVMCHDAVEVLHKMIPDNSLRMVQLFFPDPWHKARHNKRRIVQVPFAELVKSKLQLGGVFHMATDWEPYAEHMLEVMSSIDGYKNLSESNDYVPRPASRPVTKFEQRGHRLGHGVWDLMFERVK
AIADELNSPLGERAQGASLAHVVWSDPQWLERYPLTFENVLTYFSRSPFYDPTCNNELVRMQMHPELQGEMLYYTQREEELLLGMQGVEYVPLCSSDAHELFIIRKQVRRSADEVHVTNLYYILYGQVYEAPAFSTVLLVRLRQSADFLVRSLGLLRQWLSKKEYGEPGATGHGHEDTLLLQLLRKAQQRNRQL
MSLTLAFAYVRASTIEEVRQGSNERQKEAIRQYTYQKGYELEIFEDKAKSGRNTLRPEFERMLKSLDRRPQIVIVSKIDRFARSLSDLLKTLEYLDQNGVGFVSVNDPGIDTTTPNGRLLLQILGAFAEFERNMINSRTKAGREQAQSKGVKKGIITITTDPNSSSVDKLAAALEHHHHHH
GSFIDIEFPEWFHEGLSRHQAENLLMGKDIGFFIIRASQSSPGDFSISVRHEDDVQHFKVMRDTKGNYFLWTEKFPSLNKLVDYYRTTSISKQKQVFLRD
MTRLPDIKKEVRFNAPIEKVWEAVSTSEGLAFWFMENDLKAETGHHFHLQSPFGPSPCQVTDVERPIKLSFTWDTDGWSVTFHLKEEENGTIFTIVHSGWKQGDTKVEKAGAESAVVHERMDRGWHDLVNERLRQIVELEHHHHHH
MAHHHHHHMNIFDHQIKNVDKGNVVAILGAQWGDEGKGKIIDMLSEYSDITCRFNGGANAGHTISVNDKKYALHLLPCGVLYDNNISVLGNGMVIHVKSLMEEIESVGGKLLDRLYLSNKAHILFDIHQIIDSIQETKKLKEGKQIGTTKRGIGPCYSTKASRIGIRLGTLKNFENFKNMYSKLIDHLMDLYNITEYDKEKELNLFYNYHLKLRDRIVDVISFMNTNLENNKKVLIEGANAAMLDIDFGTYPYVTSSCTTVGGVFSGLGIHHKKLNLVVGVVKSYLTRVGCGPFLTELNNDVGQYLREKGHEYGTTTKRPRRCGWLDIPMLLYVKCINSIDMINLTKLDVLSGLEEILLCVNFKNKKTGELLEKGCYPVEEEISEEYEPVYEKFSGWKEDISTCNEFDELPENAKKYILAIEKYLKTPIVWIGVGPNRKNMIVKKNFNLN
MTKMSITVNQTVLHQLVKNVDGDSIKMESVLRDELLSITPEVEQMMLQLHQSYQNKAKAFGVFQEKSIFAQHLNRLLEQEIEFLGFSQYSTKLLADELGKYNFAESGTLILCQYNFLATDYLFIALLDSRHSMLVDEHLDIRRTEYLDITQFDIAARINLTDLQVNANSNRYLTFIKGRVGRKISDFFMDFLGAEEGLNPQVQNQCLLQAVSDYCDQGELNKEQTQAVKKQVFEYCKGQLSNGNNIELRELSDSLPTLNEQPFVVFTEKQNYGLEESIPPIRSTLKSLTKFSGSGKGVTLSFDAELLNTRIQWDPMTDTLTIKGLPPNLKDQLQKALKSENLEHHHHHH
MSLKITILAVGKLKEKYWKQAIAEYEKRLGPYTKIDIIEVPDEKAPENMSDKEIEQVKEKEGQRILAKIKPQSTVITLEIQGKMLSSEGLAQELNQRMTQGQSDFVFVIGGSNGLHKDVLQRSNYALSFSKMTFPHQMMRVVLIEQVYRAFKIMRGEAYHK
MRGSHHHHHHGSDLGRKLLEAARAGQDDEVRILMANGADVNAADNTGTTPLHLAAYSGHLEIVEVLLKHGADVDASDVFGYTPLHLAAYWGHLEIVEVLLKNGADVNAMDSDGMTPLHLAAKWGYLEIVEVLLKHGADVNAQDKFGKTAFDISIDNGNEDLAEILQKLN
SNAMSKKAELAELVKELAVVHGKVTLSSGKEADYYVDLRRATLHARASRLIGELLRELTADWDYVAVGGLTLGADPVATSVMHADGREIHAFVVRKEAKKHGMQRRIEGPDVVGKKVLVVEDTTTTGNSPLTAVKALREAGAEVVGVATVVDRATGAADVIAAEGLEYRYILGLEDLGLA
HHMKLYIMPGACSLADHILLRWSGSSFDLQFLDHQSMKAPEYLALNPSGAVPALQVGDWVLTQNAAILNYITDIAPAERGLSGDGSLKARAEINRWIAFSNSDVHPMYWALFGGTAYLQDPQMIARSQDNARQKLRVLYQRADAHLKHHNWLANGQRSGADAYLYVTLRWAKKVGVDLSSLDALSAFFERMEADPGVQAALQAEGLI
SAAFPQWTRVDDKRFELALLQIPEGSPNFIENIAYYLQKPVKEVEYYYCALVHDIERIESGKYVLPKYPEDDYVKLTEAGESKGNGKKTGIPWSEEEQRLFLEGLNKFGKGDWKNISRYCVKSRTSTQVASHAQKYFARQKQESTNTKRPSIHDMTLGVAVNVPGSNLESTGQQPHFGDQIPSNQYYPSQENFRGFDQRW
